This note sets out measurements from patent US20250171536A1 (CSL INNOVATION, published 2025).

The target of experiment [1] is T1, Cyno CD117, soluble (cynoCD117 1-520) (cynomolgus monkey, UniProt P10721 26-520 (human entry)).
T1 construct: Residues as printed
T1 chain: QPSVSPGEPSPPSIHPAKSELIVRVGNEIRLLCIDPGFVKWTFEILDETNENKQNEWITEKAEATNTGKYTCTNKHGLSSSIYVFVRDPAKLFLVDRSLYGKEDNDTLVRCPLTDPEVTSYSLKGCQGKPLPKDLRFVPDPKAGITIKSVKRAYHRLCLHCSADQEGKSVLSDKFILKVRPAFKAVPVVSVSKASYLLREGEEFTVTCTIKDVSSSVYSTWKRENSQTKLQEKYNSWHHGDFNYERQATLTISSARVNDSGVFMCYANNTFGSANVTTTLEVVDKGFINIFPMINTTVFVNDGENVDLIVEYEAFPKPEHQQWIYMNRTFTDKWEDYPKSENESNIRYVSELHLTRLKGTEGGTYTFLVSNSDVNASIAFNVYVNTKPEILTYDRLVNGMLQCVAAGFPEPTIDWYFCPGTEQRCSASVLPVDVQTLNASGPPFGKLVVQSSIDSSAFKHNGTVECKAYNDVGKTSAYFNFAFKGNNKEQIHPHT
Kind of experiment: SPR Biacore 4000, captured antibody, soluble CD117 analyte, 1:1 fit.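 Note: antibodies captured on CM5 chips via goat anti-human IgG or IgA, CD117 analyte in two-fold series 0.8–200 nM, run at pH 7.3 and 37 °C, double-referenced sensorgrams.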
Protocol: (§1) Biacore 4000 was used for all binding analyses. Experiments were performed at pH 7.3, 37° C. and under flow rate of 30 μL/min. Human anti-CD117 antibodies were surface captured using either polyclonal goat anti-human IgG or IgA antibodies directly immobilised onto the carboxymethyl dextran surface of CM5 sensorchips to approximately 13,000 RU using standard NHS/EDC chemistry at pH 5. The immobilised antibody surface was pre-conditioned with ten injections of human polyclonal IgG (Privigen 60s, 10 μg/mL) each followed by a regeneration cycle with 100 mM H3PO4.
(§2) A total of 18 anti-CD117 antibodies (2 μg/mL) were tested as captured ligands against four soluble mammalian CD117 receptor variants: the N-terminal domain of human CD117 (HuCD1₁₇₁₋₃₀₈), full length human CD117 (HuCD1₁₇₁₋₅₂₄), cyno CD117 (cynoCD117₁₋₅₂₀), and murine CD117 (MuCD117₁₋₅₂₇).
(§3) CD117 proteins were prepared in two-fold dilutions ranging from 0.8 to 200 nM. Anti-CD117 antibodies huAb249, huAb85, huCK6 and huhzSR1 were used as positive controls. BM4 was prepared in an IgG and IgA2 format and used as negative control. Binding affinities were calculated from sensorgrams double-referenced using reference surface and blank buffer injection data gathered within each experiment.

For experiment [2], the target named is N-terminal domain of human CD117, soluble (HuCD117 1-308) (human, UniProt P10721 26-308). The experiment is described as above.
Protocol: as §1, §2, §3
The target of experiment [3] is T2, Full length human CD117, soluble (HuCD117 1-524) (human, UniProt P10721 26-524).
T2 construct: also called full-length protein
The description is as above.
Protocol: as §1, §2, §3

Experiment [4] has as its target T3, Murine CD117, soluble (MuCD117 1-527) (mouse, UniProt P05532 25-527).
T3 construct: Residues as printed
T3 sequence: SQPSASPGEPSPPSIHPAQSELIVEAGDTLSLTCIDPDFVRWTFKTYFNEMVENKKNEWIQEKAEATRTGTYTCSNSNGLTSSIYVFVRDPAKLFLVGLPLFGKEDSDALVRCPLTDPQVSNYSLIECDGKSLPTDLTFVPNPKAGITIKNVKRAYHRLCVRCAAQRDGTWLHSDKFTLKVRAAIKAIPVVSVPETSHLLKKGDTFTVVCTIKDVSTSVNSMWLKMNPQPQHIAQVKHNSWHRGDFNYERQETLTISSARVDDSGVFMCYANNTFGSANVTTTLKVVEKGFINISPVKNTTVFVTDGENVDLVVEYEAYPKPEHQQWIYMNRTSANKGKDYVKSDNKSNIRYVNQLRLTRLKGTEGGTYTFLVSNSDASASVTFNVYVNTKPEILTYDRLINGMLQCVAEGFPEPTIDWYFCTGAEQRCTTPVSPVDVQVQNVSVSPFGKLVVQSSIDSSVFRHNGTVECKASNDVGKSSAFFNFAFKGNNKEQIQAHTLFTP
Briefly: SPR, captured antibody, soluble CD117 analyte.
Protocol: as §1, §2, §3

For experiment [5], the target named is T4, Human CD117 (c-kit), cell-surface expressed (human, UniProt P10721 26-976).
T4 construct: also called hCD117; SCFR
Briefly: flow cytometry on TF-1 cells, IgG1 format, anti-human IgG Fab-AF488, total binding.
Protocol: (§4) After a one hour incubation on ice, cells were washed once prior to fixation.
(§5) Mean fluorescence intensities (MFI) were obtained using Flowjo v10 and analysed using GraphPad Prism. Total binding curves for TF-1 cells and specific binding curves for HEK293FS expressing CD117 (generated by subtracting non-specific binding to parental cells) were plotted. EC50 values for each anti-CD117-IgG1 antibody tested was determined using a non-linear regression model.

Experiment [6] addresses T5, Cynomolgus monkey CD117, expressed on HEK293FS cells (cynomolgus monkey, UniProt P10721 26-976 (human entry)).
T5 construct: The construct transfected is not further described; also called cyno CD117
T5 chain: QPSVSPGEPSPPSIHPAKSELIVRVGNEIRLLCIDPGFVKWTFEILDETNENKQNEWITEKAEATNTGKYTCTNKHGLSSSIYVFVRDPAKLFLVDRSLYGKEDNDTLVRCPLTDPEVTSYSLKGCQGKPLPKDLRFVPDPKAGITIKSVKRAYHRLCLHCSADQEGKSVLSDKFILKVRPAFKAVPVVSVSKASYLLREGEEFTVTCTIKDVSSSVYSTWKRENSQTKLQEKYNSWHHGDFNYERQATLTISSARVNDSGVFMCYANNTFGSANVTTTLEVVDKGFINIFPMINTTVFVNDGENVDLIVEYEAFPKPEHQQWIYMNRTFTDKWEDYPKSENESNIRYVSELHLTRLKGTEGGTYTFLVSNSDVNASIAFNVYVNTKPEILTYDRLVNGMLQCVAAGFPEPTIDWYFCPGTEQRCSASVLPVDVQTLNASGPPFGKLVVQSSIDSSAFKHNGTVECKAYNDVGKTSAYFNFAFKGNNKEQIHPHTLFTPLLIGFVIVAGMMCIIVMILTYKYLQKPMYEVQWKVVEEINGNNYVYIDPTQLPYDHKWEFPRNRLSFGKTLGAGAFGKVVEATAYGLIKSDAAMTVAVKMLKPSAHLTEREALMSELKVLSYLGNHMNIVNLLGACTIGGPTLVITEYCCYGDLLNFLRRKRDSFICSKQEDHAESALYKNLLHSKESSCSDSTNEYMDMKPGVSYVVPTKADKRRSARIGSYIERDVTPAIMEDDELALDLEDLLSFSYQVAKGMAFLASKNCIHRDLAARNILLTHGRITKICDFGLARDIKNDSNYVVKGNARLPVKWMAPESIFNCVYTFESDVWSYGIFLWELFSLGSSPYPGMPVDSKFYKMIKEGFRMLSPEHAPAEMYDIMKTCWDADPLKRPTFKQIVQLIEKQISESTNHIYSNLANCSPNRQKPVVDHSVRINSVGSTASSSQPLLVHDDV
Kind of experiment: flow cytometry on HEK293FS cells expressing cynomolgus CD117, IgG1 format, signal of parental cells subtracted [F].
Protocol: as §4, §5

The target in experiment [7] is T3, Murine CD117, soluble (MuCD117 1-527). Briefly: SPR Biacore 4000, captured antibody, soluble CD117 analyte.
Protocol: as §1, §2, §3
Experiment [8] deals with T6, Mouse CD117, expressed on HEK293FS cells (mouse, UniProt P05532 25-979).
T6 construct: The construct transfected is not further described; also called murine CD117
Briefly: flow cytometry on HEK293FS cells expressing mouse CD117, IgG1 format, signal of parental cells subtracted.
Protocol: as §4, §5

Experiment [9] deals with T5, Cynomolgus monkey CD117, expressed on …. Kind of experiment: flow cytometry on HEK293FS cells expressing cynomolgus CD117, IgG1 format, signal of parental cells subtracted.
Protocol: as §4, §5
Experiment [10] addresses T4, Human CD117 (c-kit), cell-surface …. Kind of experiment: flow cytometry on HEK293FS cells expressing human CD117, IgG1 format, signal of parental cells subtracted.
Protocol: as §4, §5
In experiment [11] the target is T1, Cyno CD117, soluble (cynoCD117 1-520). Briefly: SPR Biacore 4000, captured antibody, soluble CD117 analyte.
Protocol: as §1, §2, §3
The target of experiment [12] is T2, Full length human CD117, soluble …. The experiment is described as above.
Protocol: as §1, §2, §3

T2 sequence (P10721 26-524): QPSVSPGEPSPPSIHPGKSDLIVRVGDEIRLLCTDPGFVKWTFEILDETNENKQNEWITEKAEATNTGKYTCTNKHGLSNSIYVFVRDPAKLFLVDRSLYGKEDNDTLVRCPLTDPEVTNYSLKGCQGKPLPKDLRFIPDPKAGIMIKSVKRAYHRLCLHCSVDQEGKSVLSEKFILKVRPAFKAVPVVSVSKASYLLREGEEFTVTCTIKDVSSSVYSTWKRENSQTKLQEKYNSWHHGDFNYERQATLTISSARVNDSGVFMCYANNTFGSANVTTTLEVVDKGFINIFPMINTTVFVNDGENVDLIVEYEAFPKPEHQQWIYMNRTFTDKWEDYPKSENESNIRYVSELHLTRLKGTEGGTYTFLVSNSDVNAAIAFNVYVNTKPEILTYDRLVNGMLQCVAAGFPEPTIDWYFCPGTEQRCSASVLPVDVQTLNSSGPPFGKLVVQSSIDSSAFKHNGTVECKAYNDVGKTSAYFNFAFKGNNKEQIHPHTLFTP
Sequence of N-terminal domain of human CD117, soluble (HuCD117 1-308) (P10721 26-308): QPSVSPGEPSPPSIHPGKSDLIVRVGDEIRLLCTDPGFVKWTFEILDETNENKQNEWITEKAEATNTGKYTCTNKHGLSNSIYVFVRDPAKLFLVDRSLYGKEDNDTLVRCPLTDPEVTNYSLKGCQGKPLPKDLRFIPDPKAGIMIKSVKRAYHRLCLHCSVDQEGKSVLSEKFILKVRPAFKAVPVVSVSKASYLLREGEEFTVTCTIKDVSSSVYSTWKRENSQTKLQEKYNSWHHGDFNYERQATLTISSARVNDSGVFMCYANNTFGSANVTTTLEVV

B1: hu3B3 IgG1 (hu3B3-hLG1) (antibody)
heavy: not shown
light: SYELTQPPSVSVSPGQTASITCSGDKVGAKYVFWYQQKPGQSPVLVVYQDNKRPSGIPERFSGSNSGNTATLTISGTQAMDEADYYCQAWDSSTALYVFGTGTKVTVLGQPKANPTVTLFPPSSEELQANKATLVCLISDFYPGAVTVAWKADGSPVKAGVETTKPSKQSNNKYAASSYLSLTPEQWKSHRSYSCQVTHEGSTVEKTVAPTECS
notes: Human IgG1, lambda
Take B1: the Kd in [1] was 5.7 nM; in experiment [2], 1.07 nM; in experiment [3], 4.2 nM. The binding result is “no binding (tested: 200 nM (highest CD117 concentration))” in [4] and “binds” in [6]. Further, the “EC50 (read off the curve)” value in [5] was roughly 0.04 nM.

B2: hu3B2 IgG1 (hu3B2-hLG1) (antibody)
heavy: not shown
light: SYELTQPPSVSVSPGQTATITCSGDKLGETYVHWYQHQSGQSPILVVYQDFKRPSGIPERFSGSNSGNTATLTISGTQAMDEADYYCQAWDSSTAVFGGGTKLTVLGQPKAAPSVTLFPPSSEELQANKATLVCLISDFYPGAVTVAWKADGSPVKAGVETTKPSKQSNNKYAASSYLSLTPEQWKSHRSYSCQVTHEGSTVEKTVAPTECS
notes: Human IgG1, lambda
As for B2, the figures for the Kd in [1], in experiment [3] and in experiment [7] were 58.7 nM, 54.6 nM and greater than 1000 nM, respectively. Besides, the 50% effective concentration (EC50 (read off the curve)) in experiment [8] was roughly 0.3 nM.

B3: hu3B2 IgA2 (hu3B2-hLhA2 (P221R)) (antibody)
heavy: QVQLQESGPGLVKPSETLSLTCTVSGYSISSGYYWGWIRQPPGKGLEWIGSIYHSGSTYYNPSLKSRVTISVDTSKNQFSLKLSSVTAADTAVYYCARVGVRYFDWLLYGAFDIWGQGTMVTVSSASPTSPKVFPLSLDSTPQDGNVVVACLVQGFFPQEPLSVTWSESGQNVTARNFPPSQDASGDLYTTSSQLTLPATQCPDGKSVTCHVKHYTNSSQDVTVPCRVPPPPPCCHPRLSLHRPALEDLLLGSEANLTCTLTGLRDASGATFTWTPSSGKSAVQGPPERDLCGCYSVSSVLPGCAQPWNHGETFTCTAAHPELKTPLTANITKSGNTFRPEVHLLPPPSEELALNELVTLTCLARGFSPKDVLVRWLQGSQELPREKYLTWASRQEPSQGTTTFAVTSILRVAAEDWKKGDTFSCMVGHEALPLAFTQKTIDRLAGKPTHVNVSVVMAEVDGTCY
light: B2 light
For B3, the figures for the Kd in experiment [1], in experiment [3] and in experiment [7] were 39.9 nM, 35.9 nM and greater than 1000 nM, respectively.

B4: hu3C2 IgG1 (hu3C2-hLG1) (antibody)
heavy: not shown
light: SYELTQDPAVSVALGQTVRITCQGDSLRDYYANWFQQKPGQAPLLVIFYDSDRPSGIPERFSGSNSGNTATLTISRVEAGDEADYYCQAWDSSSDHWVFGGGTKLTVLGQPKAAPSVTLFPPSSEELQANKATLVCLISDFYPGAVTVAWKADGSPVKAGVETTKPSKQSNNKYAASSYLSLTPEQWKSHRSYSCQVTHEGSTVEKTVAPTECS
notes: Human IgG1, lambda
As for B4, the “EC50 (read off the curve)” value is roughly 0.3 nM in experiment [9], roughly 0.2 nM in [5] and roughly 0.4 nM in [10]. For the same molecule, the Kd in [1] amounted to 33.7 nM; in experiment [2], 4.14 nM; in experiment [3], 14.4 nM. The binding result in experiment [4] is on record as “no binding (tested: 200 nM (highest CD117 concentration))”.

B5: hu4A2 IgG1 (hu4A2-hKG1) (antibody)
heavy: not shown
light: EIVLTQSPGTLSLSPGKRATLSCRASQSVSNSYLAWYQQKPGQPPKLLIYWASTRESGVPDRFSGSGSGTDFTLTISSLQAEDVAVYYCQQYYSTPLTFGGGTKVEIKRTVAAPSVFIFPPSDEQLKSGTASVVCLLNNFYPREAKVQWKVDNALQSGNSQESVTEQDSKDSTYSLSSTLTLSKADYEKHKVYACEVTHQGLSSPVTKSFNRGEC
notes: Human IgG1, kappa; also called hu4Aa
With B5, the 50% effective concentration (EC50 (read off the curve)) in [9] is roughly 0.3 nM; in experiment [5], roughly 0.2 nM; in experiment [10], roughly 0.5 nM. The Kd in experiment [1] is 34.6 nM; in [2], 14.4 nM; in experiment [3], 32.4 nM.

B6: hu4A2 IgA2 (hu4A2-hKhA2 (P221R)) (antibody)
heavy: EVQLLESGGGLVQPGGSLRLSCAASGFTFSDYGMSWVRQAPGKGLEWVSAIGYGGGGKYYADSVKGRFTISRDNSKNTLYLQMNSLRAEDTAVYYCAKDTWWLAGLFDYWGQGTLVTVSSASPTSPKVFPLSLDSTPQDGNVVVACLVQGFFPQEPLSVTWSESGQNVTARNFPPSQDASGDLYTTSSQLTLPATQCPDGKSVTCHVKHYTNSSQDVTVPCRVPPPPPCCHPRLSLHRPALEDLLLGSEANLTCTLTGLRDASGATFTWTPSSGKSAVQGPPERDLCGCYSVSSVLPGCAQPWNHGETFTCTAAHPELKTPLTANITKSGNTFRPEVHLLPPPSEELALNELVTLTCLARGFSPKDVLVRWLQGSQELPREKYLTWASRQEPSQGTTTFAVTSILRVAAEDWKKGDTFSCMVGHEALPLAFTQKTIDRLAGKPTHVNVSVVMAEVDGTCY
light: B5 light
Turning to B6, the Kd in [1] was 3 nM; in experiment [2] it was 8.61 nM; in experiment [3] it was 18.6 nM. Moreover, the figures for the “fold gain in affinity (IgA2 backbone vs IgG1 or IgG4)” value in experiment [11] and in experiment [12] were roughly 10 fold and roughly 2 fold, respectively.
